Assay results published in publication PMC5461336, “Non-canonical Glucocorticoid Receptor Transactivation of gilz by Alcohol Suppresses Cell Inflammatory Response”.

Target: Glucocorticoid receptor (Hu-GR), unliganded (human, UniProt P04150 1-777)
Test: EMSA; no glucocorticoid; GR 40 ng (0.5 pmol), probe 0.5 ng (0.05 pmol), 1 ug poly(dI-dC), 25 ul; 6% non-denaturing PAGE; buffer, salt, pH and temperature not stated
Settings: protein: recombinant; chain copies: 2; label: 32P 5'-end; blunt

Glucocorticoid receptor (Hu-GR), unliganded, sequence (P04150 whole entry): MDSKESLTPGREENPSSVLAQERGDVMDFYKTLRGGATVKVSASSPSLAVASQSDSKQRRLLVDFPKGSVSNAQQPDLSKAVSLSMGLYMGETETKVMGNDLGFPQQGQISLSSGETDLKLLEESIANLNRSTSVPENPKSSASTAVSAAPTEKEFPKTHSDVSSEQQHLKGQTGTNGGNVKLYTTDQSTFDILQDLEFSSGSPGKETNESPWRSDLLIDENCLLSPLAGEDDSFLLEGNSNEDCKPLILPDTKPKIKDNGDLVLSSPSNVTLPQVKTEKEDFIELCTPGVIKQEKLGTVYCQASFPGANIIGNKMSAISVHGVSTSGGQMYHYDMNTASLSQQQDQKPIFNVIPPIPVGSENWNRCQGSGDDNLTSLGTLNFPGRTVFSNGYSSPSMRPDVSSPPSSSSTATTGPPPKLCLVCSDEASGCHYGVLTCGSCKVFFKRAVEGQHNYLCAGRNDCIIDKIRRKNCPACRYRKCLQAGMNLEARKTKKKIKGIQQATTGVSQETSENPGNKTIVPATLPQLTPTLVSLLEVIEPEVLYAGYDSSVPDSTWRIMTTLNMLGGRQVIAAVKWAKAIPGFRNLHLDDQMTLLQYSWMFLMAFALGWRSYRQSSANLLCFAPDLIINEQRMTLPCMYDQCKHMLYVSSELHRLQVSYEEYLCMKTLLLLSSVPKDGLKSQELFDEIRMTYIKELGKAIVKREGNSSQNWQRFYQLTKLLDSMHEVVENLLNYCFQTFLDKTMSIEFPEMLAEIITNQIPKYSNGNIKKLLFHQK

B1: Wt-GRE1 (dsDNA)
DNA 1: CAAACTAGCGCTGTTCTTTACTGAATGCCC
DNA 2: GGGCATTCAGTAAAGAACAGCGCTAGTTTG
- binding result: binds

B2: Wt-GRE2 (dsDNA)
DNA 1: GGTGGAACCCAATGTTCTCCTTTGGTCCTG
DNA 2: CAGGACCAAAGGAGAACATTGGGTTCCACC
- binding result: binds

B3: Mut-GRE1 (dsDNA)
DNA 1: CAAACTAGCGCCAGGTCTTTACTGAATGCCC
DNA 2: GGGCATTCAGTAAAGACCTGGCGCTAGTTTG
- binding result: no binding

B4: Mut-GRE2 (dsDNA)
DNA 1: GGTGGAACCCAAGAGCACCCTTTGGTCCTG
DNA 2: CAGGACCAAAGGGTGCTCTTGGGTTCCACC
- binding result: no binding
